Laboratory results as given in US20260193347A1 (UNIVERSITY OF FLORIDA RESEARCH FOUNDATION, published 2026).

Assays:
[1] = molecular target: T1, Venus-tagged full length GPR158 (mGlyR) transiently expressed on HEK293 cells (human, UniProt Q5T848 24-1215); test: flow cytometry titration on GPR158-transfected HEK293 cells
T1 construct: This is the flow cytometry target; not shown: Venus tag
T1 sequence: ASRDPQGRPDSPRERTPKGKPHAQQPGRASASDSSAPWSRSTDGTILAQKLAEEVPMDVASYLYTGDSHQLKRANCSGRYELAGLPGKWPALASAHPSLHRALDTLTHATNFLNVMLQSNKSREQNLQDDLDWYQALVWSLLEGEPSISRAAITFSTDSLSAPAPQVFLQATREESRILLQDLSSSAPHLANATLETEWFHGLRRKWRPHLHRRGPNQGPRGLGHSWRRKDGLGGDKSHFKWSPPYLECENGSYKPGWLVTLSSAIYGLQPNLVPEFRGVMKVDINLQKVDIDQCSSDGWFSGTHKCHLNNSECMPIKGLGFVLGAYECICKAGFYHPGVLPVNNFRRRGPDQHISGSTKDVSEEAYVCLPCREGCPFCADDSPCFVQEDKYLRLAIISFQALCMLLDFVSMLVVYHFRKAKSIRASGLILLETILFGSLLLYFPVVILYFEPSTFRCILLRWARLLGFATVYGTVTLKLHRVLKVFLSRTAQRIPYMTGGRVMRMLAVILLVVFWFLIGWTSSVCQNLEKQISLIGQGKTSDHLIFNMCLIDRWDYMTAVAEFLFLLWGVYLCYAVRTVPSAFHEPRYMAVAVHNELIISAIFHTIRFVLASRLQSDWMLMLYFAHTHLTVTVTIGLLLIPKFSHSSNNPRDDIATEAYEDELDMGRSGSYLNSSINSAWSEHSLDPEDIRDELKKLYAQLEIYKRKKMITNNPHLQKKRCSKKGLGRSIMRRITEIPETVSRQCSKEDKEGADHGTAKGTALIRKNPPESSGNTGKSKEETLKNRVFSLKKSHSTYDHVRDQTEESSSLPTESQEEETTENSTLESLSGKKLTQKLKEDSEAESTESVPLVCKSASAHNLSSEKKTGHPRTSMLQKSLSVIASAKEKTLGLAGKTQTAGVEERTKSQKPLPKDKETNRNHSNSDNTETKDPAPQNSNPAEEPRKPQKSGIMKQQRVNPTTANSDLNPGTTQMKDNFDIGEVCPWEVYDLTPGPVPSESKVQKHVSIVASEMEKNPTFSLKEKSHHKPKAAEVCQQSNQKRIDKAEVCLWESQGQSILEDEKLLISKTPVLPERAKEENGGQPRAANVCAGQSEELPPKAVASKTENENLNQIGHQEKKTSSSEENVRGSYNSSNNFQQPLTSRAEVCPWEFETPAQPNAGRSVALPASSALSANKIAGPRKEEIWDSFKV

[2] = molecular target: T1, Venus-tagged full length GPR158 (mGlyR) …; test: flow cytometry, % of positive cells against Log [Nanobody] (M), cells expressing mGlyR, n=3, detection with anti-myc-APC
Protocol: Error bars are SEM values (n=3 independent experiments).
HEK293FT cells were cultured in 6 well plates at the density of 1.10⁶ per well and transfected with 2 μg of cDNA of mGlyR or empty pcDNA3.1+ in control experiments, using Metafectene Pro. 48 h after transfection, cells were mechanically detached pipetting up-down, washed in PBS supplemented with 0.1% BSA, counted and incubated in PBS-0.1% BSA for 1 h at 4° C. under rotation. […] After 3 washes, cells were analyzed in LSR-II BD flow cytometer. Gating strategy to sort individual cells to debris and doublets was used.

[3] = molecular target: T2, mGlyR (GPR158) co-expressed in HEK293FT cells in the BRET-based GAP assay (human, UniProt Q5T848 24-1215); test: cell-based or functional assay
T2 sequence: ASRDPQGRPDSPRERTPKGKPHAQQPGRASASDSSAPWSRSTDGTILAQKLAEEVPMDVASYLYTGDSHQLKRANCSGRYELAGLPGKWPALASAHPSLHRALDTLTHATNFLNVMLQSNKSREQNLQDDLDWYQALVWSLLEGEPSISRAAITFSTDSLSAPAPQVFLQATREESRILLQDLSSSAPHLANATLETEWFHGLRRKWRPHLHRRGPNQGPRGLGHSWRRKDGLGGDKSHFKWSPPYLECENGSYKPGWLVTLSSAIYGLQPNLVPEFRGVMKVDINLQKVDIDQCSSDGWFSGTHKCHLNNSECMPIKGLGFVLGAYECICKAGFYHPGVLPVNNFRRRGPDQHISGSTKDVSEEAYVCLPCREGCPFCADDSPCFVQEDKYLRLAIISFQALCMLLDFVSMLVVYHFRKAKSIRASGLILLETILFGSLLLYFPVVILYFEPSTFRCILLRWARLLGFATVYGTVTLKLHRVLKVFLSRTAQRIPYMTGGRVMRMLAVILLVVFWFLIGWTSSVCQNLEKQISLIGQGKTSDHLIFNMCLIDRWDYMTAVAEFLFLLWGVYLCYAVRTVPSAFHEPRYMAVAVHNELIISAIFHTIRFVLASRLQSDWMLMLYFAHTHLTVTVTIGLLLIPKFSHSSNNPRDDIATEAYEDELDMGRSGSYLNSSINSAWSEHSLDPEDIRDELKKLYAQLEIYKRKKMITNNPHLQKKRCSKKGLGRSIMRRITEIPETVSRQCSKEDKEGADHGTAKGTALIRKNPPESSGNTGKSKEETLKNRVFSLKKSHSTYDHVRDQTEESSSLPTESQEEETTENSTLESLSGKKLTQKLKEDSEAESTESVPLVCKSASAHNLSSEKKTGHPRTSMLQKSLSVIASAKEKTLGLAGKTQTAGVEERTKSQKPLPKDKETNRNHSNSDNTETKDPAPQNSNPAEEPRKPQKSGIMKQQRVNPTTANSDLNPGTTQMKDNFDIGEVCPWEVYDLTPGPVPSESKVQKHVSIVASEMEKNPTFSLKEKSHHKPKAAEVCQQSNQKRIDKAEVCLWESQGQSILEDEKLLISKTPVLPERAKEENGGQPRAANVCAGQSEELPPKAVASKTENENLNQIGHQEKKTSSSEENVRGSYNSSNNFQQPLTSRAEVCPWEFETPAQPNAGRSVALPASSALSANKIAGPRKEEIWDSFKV

B1: llama nanobody Nb20 (Nanobody-20), purified recombinant, myc- and His-tagged (VHH, not shown: small tags and cut ends)
VHH: EVQLQESGGGLVQAGGSLRLSCAASGSIGNIYIMGWYRQTPGPQRELVATIRTVRWTKYEDYADSVKGRFTISDDDAKNTVYLQMNSLKPEDTAVYYCNYKDYNAPSDGYWGQGTQVTVSS
notes: Expressed in E. coli BL21 DE3 from pET28a and purified on Ni-IDA; Detected by an anti-myc-APC antibody in flow cytometry; The two passages disagree on where the tags sit; also called clone number 20
EC50 [1]: ~10 nM
EC50 [2]: 9.9 nM
IC50, dose-response of changes in GAP activity (BRET-based GAP assay) [3]: ~6 nM
IC50, inhibition of GAP activity of GPR158 via RGS7/Gβ5 (BRET-based GAP assay) [3]: 5.77 nM
